Test results taken from publication doi:10.64898/2025.12.08.692997 (bioRxiv, 2025).
Where two headings read alike, the source gives them in different places. One block for each molecule: values may come before it.

Legend:
[1] = target: Rat EphB1-Fc ectodomain (rat) (UniProt P09759); test: BLI
[2] = target: Mouse EphrinB2-His ectodomain (mouse) (UniProt P52800); test: mass photometry
[3] = target: Rat EphB1-Fc ectodomain (rat) (UniProt P09759); test: AlphaScreen or HTRF
[4] = target: T1, Human EphB2-His ectodomain (human), P29323; test: mass photometry; conditions: remark: other sources report otherwise
T1 chain: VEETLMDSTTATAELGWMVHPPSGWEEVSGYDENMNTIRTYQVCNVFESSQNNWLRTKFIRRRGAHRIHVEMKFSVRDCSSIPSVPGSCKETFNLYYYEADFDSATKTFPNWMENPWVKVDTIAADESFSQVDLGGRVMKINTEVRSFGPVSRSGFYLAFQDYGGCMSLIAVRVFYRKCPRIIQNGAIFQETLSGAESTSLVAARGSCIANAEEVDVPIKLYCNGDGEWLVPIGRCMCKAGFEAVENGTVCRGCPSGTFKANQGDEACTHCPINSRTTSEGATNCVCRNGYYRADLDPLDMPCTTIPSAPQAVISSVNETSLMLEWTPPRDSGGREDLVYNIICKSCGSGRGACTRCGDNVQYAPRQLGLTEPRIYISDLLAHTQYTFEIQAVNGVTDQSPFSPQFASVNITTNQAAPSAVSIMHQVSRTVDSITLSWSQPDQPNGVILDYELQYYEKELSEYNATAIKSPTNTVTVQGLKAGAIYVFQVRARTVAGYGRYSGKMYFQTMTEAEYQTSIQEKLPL

[5] = target: T2, Human EphB1-His ectodomain (human, UniProt P54762 18-540); test: BLI
T2 sequence: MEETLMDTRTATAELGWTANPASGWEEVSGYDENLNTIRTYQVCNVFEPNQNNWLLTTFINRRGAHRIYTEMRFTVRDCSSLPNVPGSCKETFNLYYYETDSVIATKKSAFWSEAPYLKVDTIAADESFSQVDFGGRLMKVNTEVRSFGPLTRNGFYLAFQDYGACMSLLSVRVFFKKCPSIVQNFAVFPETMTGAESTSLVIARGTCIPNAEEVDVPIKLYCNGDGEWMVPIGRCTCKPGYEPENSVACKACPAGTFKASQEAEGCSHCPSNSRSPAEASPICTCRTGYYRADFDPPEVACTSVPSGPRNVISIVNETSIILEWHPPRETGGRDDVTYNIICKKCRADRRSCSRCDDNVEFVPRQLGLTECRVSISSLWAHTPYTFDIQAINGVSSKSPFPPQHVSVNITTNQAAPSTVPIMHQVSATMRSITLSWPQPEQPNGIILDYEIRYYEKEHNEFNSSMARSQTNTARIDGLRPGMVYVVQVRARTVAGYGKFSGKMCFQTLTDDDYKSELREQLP

[6] = target: T3, Human EphB2-His ectodomain (human, UniProt P29323 19-543); test: BLI
T3 sequence: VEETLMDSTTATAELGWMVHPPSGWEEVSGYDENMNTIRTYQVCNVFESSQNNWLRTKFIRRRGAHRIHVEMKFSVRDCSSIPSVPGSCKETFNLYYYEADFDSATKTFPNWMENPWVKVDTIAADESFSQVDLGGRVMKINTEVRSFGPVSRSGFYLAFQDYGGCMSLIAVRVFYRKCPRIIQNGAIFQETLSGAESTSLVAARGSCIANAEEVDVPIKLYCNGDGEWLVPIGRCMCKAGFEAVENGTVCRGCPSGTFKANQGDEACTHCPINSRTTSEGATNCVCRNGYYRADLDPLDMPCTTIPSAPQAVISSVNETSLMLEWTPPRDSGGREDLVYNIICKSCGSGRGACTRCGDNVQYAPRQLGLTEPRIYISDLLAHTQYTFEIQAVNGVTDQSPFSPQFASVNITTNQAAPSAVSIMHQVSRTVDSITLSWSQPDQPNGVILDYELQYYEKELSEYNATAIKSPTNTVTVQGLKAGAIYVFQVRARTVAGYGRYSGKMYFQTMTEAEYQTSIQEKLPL

[7] = target: T3, Human EphB2-His ectodomain; test: BLI; remark: listed apart in the source
[8] = target: T4, Human EphB4-His ectodomain (human, UniProt P54760 16-539); test: BLI
T4 sequence: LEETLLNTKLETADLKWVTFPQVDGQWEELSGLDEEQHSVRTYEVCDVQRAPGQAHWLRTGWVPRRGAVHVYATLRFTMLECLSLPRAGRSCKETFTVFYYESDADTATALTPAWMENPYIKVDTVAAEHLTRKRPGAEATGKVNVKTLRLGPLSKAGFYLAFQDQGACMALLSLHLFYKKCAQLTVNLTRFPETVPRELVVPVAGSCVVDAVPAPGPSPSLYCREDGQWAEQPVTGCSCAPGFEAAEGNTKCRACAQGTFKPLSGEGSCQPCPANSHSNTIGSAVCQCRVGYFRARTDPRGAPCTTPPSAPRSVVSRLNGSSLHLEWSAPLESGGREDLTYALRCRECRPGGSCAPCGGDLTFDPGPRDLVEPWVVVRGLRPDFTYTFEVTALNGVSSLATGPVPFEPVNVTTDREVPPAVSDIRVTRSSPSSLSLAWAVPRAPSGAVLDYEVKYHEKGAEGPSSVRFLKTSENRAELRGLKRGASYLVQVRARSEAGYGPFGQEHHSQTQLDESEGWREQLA

Molecule: Mouse EphrinB2-His ectodomain (from UniProt P52800 29-232) (domain or fragment)
KD1 (2:1 heterologous interaction model) [1]: < 1 pM
KD2 (dimer formation, 2:1 model) [1]: 39.7 nM
stoichiometry N [2]: 2

Molecule: soluble Reelin protein (from UniProt Q60841 27-3461) (natural protein)
IC50 [3]: 50 nM

B1: Human EphB2-His ectodomain, P29323 19-543 (domain or fragment)
chain: VEETLMDSTTATAELGWMVHPPSGWEEVSGYDENMNTIRTYQVCNVFESSQNNWLRTKFIRRRGAHRIHVEMKFSVRDCSSIPSVPGSCKETFNLYYYEADFDSATKTFPNWMENPWVKVDTIAADESFSQVDLGGRVMKINTEVRSFGPVSRSGFYLAFQDYGGCMSLIAVRVFYRKCPRIIQNGAIFQETLSGAESTSLVAARGSCIANAEEVDVPIKLYCNGDGEWLVPIGRCMCKAGFEAVENGTVCRGCPSGTFKANQGDEACTHCPINSRTTSEGATNCVCRNGYYRADLDPLDMPCTTIPSAPQAVISSVNETSLMLEWTPPRDSGGREDLVYNIICKSCGSGRGACTRCGDNVQYAPRQLGLTEPRIYISDLLAHTQYTFEIQAVNGVTDQSPFSPQFASVNITTNQAAPSAVSIMHQVSRTVDSITLSWSQPDQPNGVILDYELQYYEKELSEYNATAIKSPTNTVTVQGLKAGAIYVFQVRARTVAGYGRYSGKMYFQTMTEAEYQTSIQEKLPL
stoichiometry N [4]: 2

B2: Human EphrinB1-Fc ectodomain (Fc fusion)
chain: LAKNLEPVSWSSLNPKFLSGKGLVIYPKIGDKLDIICPRAEAGRPYEYYKLYLVRPEQAAACSTVLDPNVLVTCNRPEQEIRFTIKFQEFSPNYMGLEFKKHHDYYITSTSNGSLEGLENREGGVCRTRTMKIIMKVGQDPNAVTPEQLTTSRPSKEADNTVKMATQAPGSRGSLGDSDGKHETVNQEEKSGPGASGGSSGDPDGFFNS
binding result [5]: binds
binding result [6]: binds

The remaining lines, values ahead:

binding result [5]: binds
binding result [6]: binds
B3: Human EphrinB3-Fc ectodomain (Fc fusion)
chain: LSLEPVYWNSANKRFQAEGGYVLYPQIGDRLDLLCPRARPPGPHSSPNYEFYKLYLVGGAQGRRCEAPPAPNLLLTCDRPDLDLRFTIKFQEYSPNLWGHEFRSHHDYYIIATSDGTREGLESLQGGVCLTRGMKVLLRVGQSPRGGAVPRKPVSEMPMERDRGAAHSLEPGKENLPGDPTSNATSRGAEGPLPPPS

binding result [7]: binds
binding result [8]: binds
binding result [5]: binds
B4: Human EphrinB2-Fc ectodomain (Fc fusion)
chain: IVLEPIYWNSSNSKFLPGQGLVLYPQIGDKLDIICPKVDSKTVGQYEYYKVYMVDKDQADRCTIKKENTPLLNCAKPDQDIKFTIKFQEFSPNLWGLEFQKNKDYYIISTSNGSLEGLDNQEGGVCQTRAMKILMKVGQDASSAGSTRNKDPTRRPELEAGTNGRSSTTSPFVKPNPGSSTDGNSAGHSGNNILGSEVALFA
